{"source": "the RNAGym collection of RNA variant scans (doi:10.7554/elife.80360)", "parents": {"B1": {"name": "CPEB3 Ribozyme (parent)", "chain": "GGGGGCCACAGCAGAAGCGUUCACGUCGCGGCCCCUGUCAGAUUCUGGUGAAUCUGCGAAUUCUGCUGU"}}}
{"variants_of": "B1", "assay": "self-cleavage, relative activity (ratio to wild type); higher = more cleavage; co-transcriptional"}
{"variant": "GGGGGCCACAGCAGAAGCGUUCACGUCGCGGCCCGUGUCAGCUUCUGGUGAAUCUGCGAAUUCUGCUGU", "note": "[C35G A42C]", "self-cleavage": 0.308}
{"variant": "GGGGGCCACAGCAGAAGCGUUCACGUCGCGGCCCAUGUCAGAUUCUGGUGAAUCUGCGAAUUCUCCUGU", "note": "[C35A G65C]", "self-cleavage": 0.191}
{"variant": "GGGGGCCACAGCAGAAGCGUUCACGUCGCGGCCCAUGUCAGAUUCUGGUCAAUCUGCGAAUUCUGCUGU", "note": "[C35A G50C]", "self-cleavage": 0.252}
{"variant": "GGGGGCCACAGCAGAAGCGUUCACGUCGCGGCCCAUGUCAGAUUCUGGUAAAUCUGCGAAUUCUGCUGU", "note": "[C35A G50A]", "self-cleavage": 0.216}
{"variant": "GGGGGCCACAGCAGAAGCGUUCACGUCGCGGCCCAUGUCAGAUUCUGGUGAAUCUGCGAACUCUGCUGU", "note": "[C35A U61C]", "self-cleavage": 0.27}
{"variant": "GGGGGCCACAGCAGAAGCGUUCACGUCGCGGCCUCAGUCAGAUUCUGGUGAAUCUGCGAAUUCUGCUGU", "note": "[C34U U36A]", "self-cleavage": 0.228}
{"variant": "GGGGGCCACAGCAGAAGCGUUCACGUCGCGGCCCAUGGCAGAUUCUGGUGAAUCUGCGAAUUCUGCUGU", "note": "[C35A U38G]", "self-cleavage": 0.291}
{"variant": "GGGGGCCACAGCAGAAGCGUUCACGUCGCGGCCCGUGUCAGAUUCUGGUGAAUCUGCAAAUUCUGCUGU", "note": "[C35G G58A]", "self-cleavage": 0.243}
{"variant": "GGGGGCCACAGCAGAAGCGUUCACGUCGCGGCCCAUGUCAGAUUCUGAUGAAUCUGCGAAUUCUGCUGU", "note": "[C35A G48A]", "self-cleavage": 0.248}
{"variant": "GGGGGCCACAGCAGAAGCGUUCACGUCGCGGCCCAUGUCAGAUUCUGCUGAAUCUGCGAAUUCUGCUGU", "note": "[C35A G48C]", "self-cleavage": 0.281}
{"variant": "GGGGGCCACAGCAGAAGCGUUCACGUCGCGGCCCGUGUCAGAUUCUGGUCAAUCUGCGAAUUCUGCUGU", "note": "[C35G G50C]", "self-cleavage": 0.401}
{"variant": "GGGGGCCACAGCAGAAGCGUUCACGUCGCGGCCUCUGUCAGAUUCUGCUGAAUCUGCGAAUUCUGCUGU", "note": "[C34U G48C]", "self-cleavage": 0.974}
{"variant": "GGGGGCCACAGCAGAAGCGUUCACGUCGCGGCCUCUGUCAGAUUCUGAUGAAUCUGCGAAUUCUGCUGU", "note": "[C34U G48A]", "self-cleavage": 0.986}
{"variant": "GGGGGCCACAGCAGAAGCGUUCACGUCGCGGCCCAUGUCACAUUCUGGUGAAUCUGCGAAUUCUGCUGU", "note": "[C35A G41C]", "self-cleavage": 0.237}
{"variant": "GGGGGCCACAGCAGAAGCGUUCACGUCGCGGCCCGUGUCAGAUUCUGGUGAAUCUGUGAAUUCUGCUGU", "note": "[C35G C57U]", "self-cleavage": 0.287}
{"variant": "GGGGGCCACAGCAGAAGCGUUCACGUCGCGGCCCAUGUCAGAUUCCGGUGAAUCUGCGAAUUCUGCUGU", "note": "[C35A U46C]", "self-cleavage": 0.275}
{"variant": "GGGGGCCACAGCAGAAGCGUUCACGUCGCGGCCCAUGUCAGAUUCUGGUGAAUCUGCGAAUUCUGCUGU", "note": "[C35A]", "self-cleavage": 0.281}
{"variant": "GGGGGCCACAGCAGAAGCGUUCACGUCGCGGCCCGUGUCAGAUUCUGGUGAAUCUGCGAAUUCUGCUGU", "note": "[C35G]", "self-cleavage": 0.478}
{"variant": "GGGGGCCACAGCAGAAGCGUUCACGUCGCGGCCUCUGUCACAUUCUGGUGAAUCUGCGAAUUCUGCUGU", "note": "[C34U G41C]", "self-cleavage": 0.729}
{"variant": "GGGGGCCACAGCAGAAGCGUUCACGUCGCGGCCUCUGUCAUAUUCUGGUGAAUCUGCGAAUUCUGCUGU", "note": "[C34U G41U]", "self-cleavage": 0.901}
{"variant": "GGGGGCCACAGCAGAAGCGUUCACGUCGCGGCCCAUGUCAGAUUCUGGUGAAUCUGCCAAUUCUGCUGU", "note": "[C35A G58C]", "self-cleavage": 0.25}
{"variant": "GGGGGCCACAGCAGAAGCGUUCACGUCGCGGCCCAUGUCAGAUUCUGGUGAAUCUGCAAAUUCUGCUGU", "note": "[C35A G58A]", "self-cleavage": 0.196}
{"variant": "GGGGGCCACAGCAGAAGCGUUCACGUCGCGGCCCGUGUCAGAUUCUGGUGAGUCUGCGAAUUCUGCUGU", "note": "[C35G A52G]", "self-cleavage": 0.458}
{"variant": "GGGGGCCACAGCAGAAGCGUUCACGUCGCGGCCUCUGUCAGAUUCUGGUUAAUCUGCGAAUUCUGCUGU", "note": "[C34U G50U]", "self-cleavage": 0.987}
{"variant": "GGGGGCCACAGCAGAAGCGUUCACGUCGCGGCCCAUGUAAGAUUCUGGUGAAUCUGCGAAUUCUGCUGU", "note": "[C35A C39A]", "self-cleavage": 0.209}
{"variant": "GGGGGCCACAGCAGAAGCGUUCACGUCGCGGCCUCUGUCAGAUUCUGGUGAAUCUGCGAAUUCUGCUUU", "note": "[C34U G68U]", "self-cleavage": 1.04}
{"variant": "GGGGGCCACAGCAGAAGCGUUCACGUCGCGGCCUCUGUCAGAUUCUGGUGAAUCCGCGAAUUCUGCUGU", "note": "[C34U U55C]", "self-cleavage": 0.823}
{"variant": "GGGGGCCACAGCAGAAGCGUUCACGUCGCGGCCCAUGUCAGAUUCUGGUGAAUCUGCGAAUUUUGCUGU", "note": "[C35A C63U]", "self-cleavage": 0.251}
{"variant": "GGGGGCCACAGCAGAAGCGUUCACGUCGCGGCCCAUGUCAGAUUCUGGUGAAUCUGCGAAUUGUGCUGU", "note": "[C35A C63G]", "self-cleavage": 0.22}
{"variant": "GGGGGCCACAGCAGAAGCGUUCACGUCGCGGCCCAUGUCAGAUACUGGUGAAUCUGCGAAUUCUGCUGU", "note": "[C35A U44A]", "self-cleavage": 0.285}
{"variant": "GGGGGCCACAGCAGAAGCGUUCACGUCGCGGCCCAUGUCAGAUGCUGGUGAAUCUGCGAAUUCUGCUGU", "note": "[C35A U44G]", "self-cleavage": 0.282}
{"variant": "GGGGGCCACAGCAGAAGCGUUCACGUCGCGGCCUCUGUCAGAUUCUGGUGAAUCUGCCAAUUCUGCUGU", "note": "[C34U G58C]", "self-cleavage": 0.995}
{"variant": "GGGGGCCACAGCAGAAGCGUUCACGUCGCGGCCUCUGUCAGAUUCUGGUGAAUCUGCUAAUUCUGCUGU", "note": "[C34U G58U]", "self-cleavage": 1}
{"variant": "GGGGGCCACAGCAGAAGCGUUCACGUCGCGGCCUCUGUCAGAUUCUGGUGAAUCUGCAAAUUCUGCUGU", "note": "[C34U G58A]", "self-cleavage": 0.92}
{"variant": "GGGGGCCACAGCAGAAGCGUUCACGUCGCGGCCUCUGUCAGAUUCUGGUGAAUCUGCGAACUCUGCUGU", "note": "[C34U U61C]", "self-cleavage": 0.888}
{"variant": "GGGGGCCACAGCAGAAGCGUUCACGUCGCGGCCCAUGUCAGAUUCUGGUGAUUCUGCGAAUUCUGCUGU", "note": "[C35A A52U]", "self-cleavage": 0.274}
{"variant": "GGGGGCCACAGCAGAAGCGUUCACGUCGCGGCCCAUGUCAGAUUCUGGUGAAUCUGCGAUUUCUGCUGU", "note": "[C35A A60U]", "self-cleavage": 0.181}
{"variant": "GGGGGCCACAGCAGAAGCGUUCACGUCGCGGCCUCUGUCAGAUUCUGGUGAAUCUGCGAAUUCUUCUGU", "note": "[C34U G65U]", "self-cleavage": 0.824}
{"variant": "GGGGGCCACAGCAGAAGCGUUCACGUCGCGGCCCGUGUCAGAUUCUGGUGAAUCUGCGAAUUCUACUGU", "note": "[C35G G65A]", "self-cleavage": 0.357}
